Data: patent US7803351B2, “Blood brain barrier permeation peptides” (priority 2004, dated 2010)
Read-outs that look alike come from different tables or passages of the source. Numbered stars: 1 amine (or outer) side, 2 acyl side, 3 side chain; on linkers, the order of the positions; unused ones are H or OH. Square brackets hold non-standard residues; d marks the D form. Ends that are not written are not given here. * marks the point of attachment. Fluorescein(5-Mal) = O=C1OC2(c3ccc(O)cc3Oc3cc(O)ccc32)c2ccc(N3C(=O)CC(*)C3=O)cc21; εLys = N[C@@H](CCCCN[*:1])C(=O)[*:2]

Tests used:
[1] = test system: amyloid plaques in brain sections; experiment: Staining of brain tissue sections of APPsw+/− and WT mice; design: species or system mouse; details: 40 μm sections
Source text: Staining experiments with cross sections of brain tissue from normal (WT) and APPsw+/− mice are suitable for evaluating target specificity of the peptide conjugate. For example, a candidate peptide conjugate is labeled with a fluorescent marker. A suitable marker is fluorescein-5-maleimide (FM; 3-equiv) in DMF, which labels the C-terminal thiol of the peptide. After a suitable reaction of peptide and FM at room temperature in the dark, the fluorescent-labeled peptide is purified, for example column-purified, requisite fraction eluted, combined, lyophilized and characterized through electron spray mass spectrometry. For tissue staining of brain sections of APPsw+/− mice (test) and WT mice (control), immunohistochemical staining of Aβ and for FM-peptide staining are performed according to published procedures (DeMattos et al., 2002; Holtzman et al., 2000). Rabbit-anti-pan Aβ antibody is used, for example, as a control, and visualized with anti-rabbit antibody conjugated with a fluorescent marker such as Alexa 568 (Molecular Probes). Staining of brain sections from normal and APPsw+/− mice are compared. Target specificity of the peptide is indicated by immunostaining of Aβ in APPsw+/− mice and no staining in WT mice.
Staining experiments with cross sections of brain tissue were also performed. […]

[2] = Acute toxicity in mice after intravenous bolus injection; format: in vivo; details: Balb/C male mice, intravenous bolus 14 mg/kg, up to several days post-injection
Experimental: Although absolute concentration of radiotracers in vivo is normally too low to cause any host toxicity, nevertheless host safety is a key determinant for any successful diagnostic agent. Therefore, using a Re-labeled peptide as a surrogate for a Tc-labeled peptide, acute toxicity in mice (Balb/C; male; 6-8wks old) was determined.

[3] = molecular target: T1, preformed Aβ 1-40 aggregates (Homo sapiens, UniProt P05067); experiment: Competitive binding of ^99mTc-peptide to preformed Aβ 1-40 aggregates with unlabeled competitor; details: 1,000-fold molar excess of competitor
T1 construct: preformed Aβ 1-40 aggregates; purchased
Experimental: Binding assays are performed to determine the binding specificity of the peptide conjugate. For example, a preliminary radioassay of Aβ-binding is performed. For example, a conjugate consisting of radiolabeled ^99mTc-peptide conjugate is incubated with Aβ fibrils in PBS for about 1-3 hours. Bound ^99mTc-peptide conjugate is separated on a Centricon filter unit (with, for example a 100 KDa cut off) and washed several times with PBS buffer. Saturable binding is indicated by calculation of a Kd (affinity constant) as well known in the art to help evaluate the relative amount of specific binding as opposed to non-specific binding. […] Radiolabeled peptide conjugate that is displaceable to background with either 1,000-fold molar excess of unlabeled peptide conjugate or, for example, cold Re-peptide conjugate, supports receptor-like binding behavior of the peptide conjugate to Aβ fibrils. Binding of the lead ^99mTc-peptide to preformed Aβ 1-40 aggregates in presence of increasing equivalents of unlabeled competing peptide. The aggregate-bound ^99mTc-peptide was isolated from free labeled peptide by centrifugation using Centricon (100 kDa cutoff) filters. The concentration of aggregate bound ^99mTc-peptide was calculated on the basis of activity retained on the filters (FIG. 5). […] Each data point represents a mean of triplicate measurements.

[4] = test system: RBE4 cell monolayers
[5] = molecular target: T2, Aβ 1-40 aggregates (Aβ fibrils) (Homo sapiens, UniProt P05067); experiment: Binding assay of ^99mTc-peptide with Aβ fibrils (Centricon filter separation); details: PBS, RT, 90 min, mean of triplicate; read-out: Kd (saturable binding to Aβ fibrils)
T2 construct: preformed Aβ 1-40 aggregates; purchased
Experimental: Binding assays are performed to determine the binding specificity of the peptide conjugate. For example, a preliminary radioassay of Aβ-binding is performed. For example, a conjugate consisting of radiolabeled ^99mTc-peptide conjugate is incubated with Aβ fibrils in PBS for about 1-3 hours. Bound ^99mTc-peptide conjugate is separated on a Centricon filter unit (with, for example a 100 KDa cut off) and washed several times with PBS buffer. Saturable binding is indicated by calculation of a Kd (affinity constant) as well known in the art to help evaluate the relative amount of specific binding as opposed to non-specific binding. […]
Binding assays of ^99mTc-peptide with Aβ fibrils were performed in PBS. […] The concentration of aggregate-bound ^99mTc-peptide was calculated on the basis of activity retained on the filters. […]
Binding assays to preformed fibrils are performed using procedures as described in the literature (Klunk et al., 2001). […] The amount of activity incorporated in the fibrils is measured through γ-counting using previously published procedures (Zhen et al., 1999). […] The mixture is incubated at room temperature for 1.5 h, and the aggregate-bound ^99mTc-peptide and free radioactivity is separated by filtration through Centricon filtration units using a centrifuge. The aggregate-bound ^99mTc-peptide collected on filters is counted in a γ-counter. […]

[6] = test system: RBE4 cell monolayers; experiment: Transwell transendothelial transport across RBE4 cell monolayers (in vitro BBB model); details: apical to basolateral and basolateral to apical, up to 120 minutes

amyloid plaques in brain sections, sequence (P05067 672-711 limits assumed): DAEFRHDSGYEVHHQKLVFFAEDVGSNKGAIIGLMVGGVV
T2 sequence (P05067 672-711): as the sequence (P05067 672-711 limits assumed) above
T1 sequence (P05067 672-711): as the sequence (P05067 672-711 limits assumed) above

Aβ-binding peptide coupled with FM: peptide labeled on the C-terminal thiol with fluorescein-5-maleimide (FM) (KKLVFFAKGC(Fluorescein(5-Mal)); not fully specified (residues 7, 8); printed as KKLVFFAεKGC)
staining of Aβ plaques in brain sections of APPsw+/− mice ([1]; APPsw+/− mouse, 17 months old, FM-peptide 2 μM solution): staining of plaques in the cortical region | staining in brain sections of WT mice ([1]; control WT mouse (Bl/6; 13.5 months old)): no staining

Re-peptide: rhenium complex of peptide KKLVFFAεKGC, surrogate for the Tc-labeled peptide (KKLVFFA[εLys]GC; not fully specified (residue 7); printed as KKLVFFAεKGC; also: rhenium complex (peptide-based chelation core))
acute toxicity [2]: nontoxic | displacement of aggregate-bound ^99mTc-peptide by competitor [3]: displaceable to background conditions

^3H-Aβ1-40 peptide: full length tritiated Aβ1-40 peptide (SEQ. ID. NO.: 2)
transwell transport / permeation across RBE4 cells [4]: did not show any transwell transport

^99mTc-peptide: peptide KKLVFFAεKGC (SEQ. ID. NO.: 1) radiolabeled with technetium-99m in its peptide-based chelation core (KKLVFFAKGC; not fully specified; conjugate chemistry not built)
Kd [5]: 352 ± 82 nM

inulin [^14C-inulin]
transwell transport / permeation across RBE4 cells [6]: low transwell transport
